# Reference: patent US20140274782A1, “AFFINITY REAGENTS AND METHODS FOR DETECTION, PURIFICATION, AND PROTEOMIC ANALYSIS OF METHYLATED PROTEINS” (The Board of Trustees of the Leland Stanford Junior …, priority 2013, published 2014)
# B1: YTHDC2 (protein, UniProt Q9H6S0 1-1430, looked up)
# 3'-5' RNA helicase YTHDC2: MSRPSSVSPRQPAPGGGGGGGPSPCGPGGGGRAKGLKDIRIDEEVKIAVNIALERFRYGDQREMEFPSSLTSTERAFIHRLSQSLGLVSKSKGKGANRYLTVKKKDGSETAHAMMTCNLTHNTKHAVRSLIQRFPVTNKERTELLPKTERGNVFAVEAENREMSKTSGRLNNGIPQIPVKRGESEFDSFRQSLPVFEKQEEIVKIIKENKVVLIVGETGSGKTTQIPQFLLDDCFKNGIPCRIFCTQPRRLAAIAVAERVAAERRERIGQTIGYQIRLESRVSPKTLLTFCTNGVLLRTLMAGDSTLSTVTHVIVDEVHERDRFSDFLLTKLRDLLQKHPTLKLILSSAALDVNLFIRYFGSCPVIYIQGRPFEVKEMFLEDILRTTGYTNKEMLKYKKEKQQEEKQQTTLTEWYSAQENSFKPESQRQRTVLNVTDEYDLLDDGGDAVFSQLTEKDVNCLEPWLIKEMDACLSDIWLHKDIDAFAQVFHLILTENVSVDYRHSETSATALMVAAGRGFASQVEQLISMGANVHSKASNGWMALDWAKHFGQTEIVDLLESYSATLEFGNLDESSLVQTNGSDLSAEDRELLKAYHHSFDDEKVDLDLIMHLLYNICHSCDAGAVLIFLPGYDEIVGLRDRILFDDKRFADSTHRYQVFMLHSNMQTSDQKKVLKNPPAGVRKIILSTNIAETSITVNDVVFVIDSGKVKEKSFDALNFVTMLKMVWISKASAIQRKGRAGRCRPGICFRLFSRLRFQNMLEFQTPELLRMPLQELCLHTKLLAPVNCPIADFLMKAPEPPPALIVRNAVQMLKTIDAMDTWEDLTELGYHLADLPVEPHLGKMVLCAVVLKCLDPILTIACTLAYRDPFVLPTQASQKRAAMLCRKRFTAGAFSDHMALLRAFQAWQKARSDGWERAFCEKNFLSQATMEIIIGMRTQLLGQLRASGFVRARGGGDIRDVNTNSENWAVVKAALVAGMYPNLVHVDRENLVLTGPKEKKVRFHPASVLSQPQYKKIPPANGQAAAIKALPTDWLIYDEMTRAHRIANIRCCSAVTPVTILVFCGPARLASNALQEPSSFRVDGIPNDSSDSEMEDKTTANLAALKLDEWLHFTLEPEAASLLLQLRQKWHSLFLRRMRAPSKPWSQVDEATIRAIIAVLSTEEQSAGLQQPSGIGQRPRPMSSEELPLASSWRSNNSRKSSADTEFSDECTTAERVLMKSPSPALHPPQKYKDRGILHPKRGTEDRSDQSSLKSTDSSSYPSPCASPSPPSSGKGSKSPSPRPNMPVRYFIMKSSNLRNLEISQQKGIWSTTPSNERKLNRAFWESSIVYLVFSVQGSGHFQGFSRMSSEIGREKSQDWGSAGLGGVFKVEWIRKESLPFQFAHHLLNPWNDNKKVQISRDGQELEPLVGEQLLQLWERLPLGEKNTTD
# B2: SMARCA1 (protein, UniProt P28370 1-1042, looked up)
# SWI/SNF-related …: MEQDTAAVAATVAAADATATIVVIEDEQPGPSTSQEEGAAAAATEATAATEKGEKKKEKNVSSFQLKLAAKAPKSEKEMDPEYEEKMKADRAKRFEFLLKQTELFAHFIQPSAQKSPTSPLNMKLGRPRIKKDEKQSLISAGDYRHRRTEQEEDEELLSESRKTSNVCIRFEVSPSYVKGGPLRDYQIRGLNWLISLYENGVNGILADEMGLGKTLQTIALLGYLKHYRNIPGPHMVLVPKSTLHNWMNEFKRWVPSLRVICFVGDKDARAAFIRDEMMPGEWDVCVTSYEMVIKEKSVFKKFHWRYLVIDEAHRIKNEKSKLSEIVREFKSTNRLLLTGTPLQNNLHELWALLNFLLPDVFNSADDFDSWFDTKNCLGDQKLVERLHAVLKPFLLRRIKTDVEKSLPPKKEIKIYLGLSKMQREWYTKILMKDIDVLNSSGKMDKMRLLNILMQLRKCCNHPYLFDGAEPGPPYTTDEHIVSNSGKMVVLDKLLAKLKEQGSRVLIFSQMTRLLDILEDYCMWRGYEYCRLDGQTPHEEREEAIEAFNAPNSSKFIFMLSTRAGGLGINLASADVVILYDSDWNPQVDLQAMDRAHRIGQKKPVRVFRLITDNTVEERIVERAEIKLRLDSIVIQQGRLIDQQSNKLAKEEMLQMIRHGATHVFASKESELTDEDITTILERGEKKTAEMNERLQKMGESSLRNFRMDIEQSLYKFEGEDYREKQKLGMVEWIEPPKRERKANYAVDAYFREALRVSEPKIPKAPRPPKQPNVQDFQFFPPRLFELLEKEILYYRKTIGYKVPRNPDIPNPALAQREEQKKIDGAEPLTPEETEEKEKLLTQGFTNWTKRDFNQFIKANEKYGRDDIDNIAREVEGKSPEEVMEYSAVFWERCNELQDIEKIMAQIERGEARIQRRISIKKALDAKIARYKAPFHQLRIQYGTSKGKNYTEEEDRFLICMLHKMGFDRENVYEELRQCVRNAPQFRFDWFIKSRTAMEFQRRCNTLISLIEKENMEIEERERAEKKKRATKTPMVKFSAFS
# B3: NCBP1 (protein, UniProt Q09161 1-790, looked up)
# Nuclear cap-binding protein …: MSRRRHSDENDGGQPHKRRKTSDANETEDHLESLICKVGEKSACSLESNLEGLAGVLEADLPNYKSKILRLLCTVARLLPEKLTIYTTLVGLLNARNYNFGGEFVEAMIRQLKESLKANNYNEAVYLVRFLSDLVNCHVIAAPSMVAMFENFVSVTQEEDVPQVRRDWYVYAFLSSLPWVGKELYEKKDAEMDRIFANTESYLKRRQKTHVPMLQVWTADKPHPQEEYLDCLWAQIQKLKKDRWQERHILRPYLAFDSILCEALQHNLPPFTPPPHTEDSVYPMPRVIFRMFDYTDDPEGPVMPGSHSVERFVIEENLHCIIKSHWKERKTCAAQLVSYPGKNKIPLNYHIVEVIFAELFQLPAPPHIDVMYTTLLIELCKLQPGSLPQVLAQATEMLYMRLDTMNTTCVDRFINWFSHHLSNFQFRWSWEDWSDCLSQDPESPKPKFVREVLEKCMRLSYHQRILDIVPPTFSALCPANPTCIYKYGDESSNSLPGHSVALCLAVAFKSKATNDEIFSILKDVPNPNQDDDDDEGFSFNPLKIEVFVQTLLHLAAKSFSHSFSALAKFHEVFKTLAESDEGKLHVLRVMFEVWRNHPQMIAVLVDKMIRTQIVDCAAVANWIFSSELSRDFTRLFVWEILHSTIRKMNKHVLKIQKELEEAKEKLARQHKRRSDDDDRSSDRKDGVLEEQIERLQEKVESAQSEQKNLFLVIFQRFIMILTEHLVRCETDGTSVLTPWYKNCIERLQQIFLQHHQIIQQYMVTLENLLFTAELDPHILAVFQQFCALQA
# Molecular target: T1, G9a and GLP (Homo sapiens, UniProt Q96KQ7+Q9H9B1)
# T1 sequence (Q96KQ7 2-1210 limits assumed): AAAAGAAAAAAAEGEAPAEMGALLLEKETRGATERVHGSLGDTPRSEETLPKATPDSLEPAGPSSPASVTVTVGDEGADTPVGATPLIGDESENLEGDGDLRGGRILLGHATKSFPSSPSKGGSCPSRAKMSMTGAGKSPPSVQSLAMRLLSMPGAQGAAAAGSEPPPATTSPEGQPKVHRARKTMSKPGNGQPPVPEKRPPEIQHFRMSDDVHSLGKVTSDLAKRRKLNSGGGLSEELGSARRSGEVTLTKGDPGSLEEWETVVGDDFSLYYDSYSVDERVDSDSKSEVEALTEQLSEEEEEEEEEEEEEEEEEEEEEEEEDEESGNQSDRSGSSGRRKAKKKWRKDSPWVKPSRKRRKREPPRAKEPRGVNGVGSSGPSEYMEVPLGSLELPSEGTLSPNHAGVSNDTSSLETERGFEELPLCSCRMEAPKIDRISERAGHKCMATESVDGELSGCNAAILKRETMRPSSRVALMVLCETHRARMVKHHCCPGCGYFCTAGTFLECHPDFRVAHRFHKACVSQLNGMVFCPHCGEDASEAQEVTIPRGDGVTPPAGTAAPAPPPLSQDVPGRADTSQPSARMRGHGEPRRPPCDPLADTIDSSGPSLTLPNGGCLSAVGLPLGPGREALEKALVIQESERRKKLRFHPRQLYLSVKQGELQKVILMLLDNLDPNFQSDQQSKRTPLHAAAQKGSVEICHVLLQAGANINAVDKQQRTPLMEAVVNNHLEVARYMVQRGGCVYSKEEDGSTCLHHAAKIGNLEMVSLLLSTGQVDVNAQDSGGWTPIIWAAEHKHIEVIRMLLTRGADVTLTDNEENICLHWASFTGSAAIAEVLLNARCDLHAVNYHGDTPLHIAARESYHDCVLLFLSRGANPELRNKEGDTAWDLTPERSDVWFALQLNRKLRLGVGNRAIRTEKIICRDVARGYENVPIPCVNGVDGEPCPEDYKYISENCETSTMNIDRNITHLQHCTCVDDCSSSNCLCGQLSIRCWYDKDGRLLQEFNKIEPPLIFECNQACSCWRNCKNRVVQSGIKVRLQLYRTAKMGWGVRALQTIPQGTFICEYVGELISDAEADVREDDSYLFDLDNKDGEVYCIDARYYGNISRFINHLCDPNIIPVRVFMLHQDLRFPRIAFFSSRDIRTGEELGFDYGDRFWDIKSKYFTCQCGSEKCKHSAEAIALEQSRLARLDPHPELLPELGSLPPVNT
# T1 sequence (Q9H9B1 2-1298 limits assumed): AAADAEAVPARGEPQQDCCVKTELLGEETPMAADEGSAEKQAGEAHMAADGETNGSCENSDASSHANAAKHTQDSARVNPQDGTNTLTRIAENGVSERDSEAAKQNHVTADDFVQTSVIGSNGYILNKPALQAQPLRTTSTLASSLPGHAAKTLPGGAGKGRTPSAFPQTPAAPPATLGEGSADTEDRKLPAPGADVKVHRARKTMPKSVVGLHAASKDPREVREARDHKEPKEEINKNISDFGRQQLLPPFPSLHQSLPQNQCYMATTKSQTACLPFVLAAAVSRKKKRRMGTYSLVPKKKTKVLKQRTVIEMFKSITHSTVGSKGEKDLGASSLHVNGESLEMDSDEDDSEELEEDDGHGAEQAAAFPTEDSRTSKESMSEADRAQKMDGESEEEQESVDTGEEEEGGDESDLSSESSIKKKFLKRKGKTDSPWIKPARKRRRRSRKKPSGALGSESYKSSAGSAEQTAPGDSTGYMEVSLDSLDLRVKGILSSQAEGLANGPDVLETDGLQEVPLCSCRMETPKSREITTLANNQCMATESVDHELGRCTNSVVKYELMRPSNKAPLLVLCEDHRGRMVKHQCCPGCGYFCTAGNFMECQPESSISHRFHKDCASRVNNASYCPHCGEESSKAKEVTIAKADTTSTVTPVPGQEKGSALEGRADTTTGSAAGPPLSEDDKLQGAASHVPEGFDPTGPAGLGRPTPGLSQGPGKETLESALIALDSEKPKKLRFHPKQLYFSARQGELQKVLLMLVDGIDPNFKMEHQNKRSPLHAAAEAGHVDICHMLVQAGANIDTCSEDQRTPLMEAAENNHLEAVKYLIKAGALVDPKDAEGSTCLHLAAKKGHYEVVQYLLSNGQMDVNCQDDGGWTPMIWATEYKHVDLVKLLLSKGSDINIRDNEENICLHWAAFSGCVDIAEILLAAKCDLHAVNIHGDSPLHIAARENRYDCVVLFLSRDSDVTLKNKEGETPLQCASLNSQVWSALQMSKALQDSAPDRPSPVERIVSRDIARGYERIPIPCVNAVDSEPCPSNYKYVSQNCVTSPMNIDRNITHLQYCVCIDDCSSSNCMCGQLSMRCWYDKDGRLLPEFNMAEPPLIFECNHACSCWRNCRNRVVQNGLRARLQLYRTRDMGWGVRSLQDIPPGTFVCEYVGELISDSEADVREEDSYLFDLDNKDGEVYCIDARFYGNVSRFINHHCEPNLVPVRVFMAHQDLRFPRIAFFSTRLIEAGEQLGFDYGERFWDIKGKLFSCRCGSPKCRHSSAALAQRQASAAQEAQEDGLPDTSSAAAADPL
# Assay: Triple SILAC pull-down after UNC0638 treatment of 293T cells, DMSO/UNC0638 ratio of protein captured by 3×MBT;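 further: mass spectrometry (Q-Exactive) SILAC quantitation, DMSO/UNC0638 ratio computed after subtracting 3×MBTD355N mutant pull-down background, only proteins with at least twofold 3×MBT over mutant signal considered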
# Assay type: cell-based
# Design: endogenous in cells; host or cells: HEK 293T
# Details: SILAC ratio DMSO relative to UNC0638, pull-down with 3xMBT; UNC0638 in heavy SILAC media; all values in log base 2
row,Molecule,Relative to UNC0638 UNC Heavy
1,B1,−0.10 log base 2
2,B2,−0.35 log base 2
3,B3,−0.32 log base 2

# Same assay, conditions: SILAC ratio DMSO relative to UNC0638, pull-down with 3xMBT; UNC0638 in light SILAC media; all values in log base 2
row,Molecule,Relative to UNC0638 UNC Light
1,B1,−0.07 log base 2
2,B2,0.18 log base 2
3,B3,0.11 log base 2

# Same assay, conditions: average of UNC Light and UNC Heavy experiments; all values in log base 2
row,Molecule,Relative to UNC0638 Average
1,B1,−0.08 log base 2
2,B2,−0.09 log base 2
3,B3,−0.11 log base 2

# Tested on: 3×MBT domain of L3MBTL1
# Assay: Triple SILAC pull-down, 3xMBT/3xMBTD355N ratio (cytoplasmic, nuclear and chromatin fractions of 293T cells);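 further: proteins quantified with MaxQuant, requiring at least two unique peptides and quantification in both label directions, normalized to the mean of proteins from a digested loading control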
# Assay type: binding, human
# Details: SILAC ratio 3xMBT vs 3xMBTD355N pull-down, 293T cells; experiment with UNC0638 in heavy SILAC media; all values in log base 2
row,Molecule,3xMBT/D355N UNC Heavy
1,B1,1.74 log base 2
2,B2,0.79 log base 2
3,B3,1.27 log base 2

# Same assay, conditions: SILAC ratio 3xMBT vs 3xMBTD355N pull-down, 293T cells; experiment with UNC0638 in light SILAC media; all values in log base 2
row,Molecule,3xMBT/D355N UNC Light
1,B1,2.87 log base 2
2,B2,3.03 log base 2
3,B3,2.23 log base 2
